Laboratory results as given in patent US7083949.

Key:
human IL-6 (human) [1] = target: human IL-6 (human) (UniProt P05231); assay: cell-based or functional assay
human IL-6 (human) [2] = target: human IL-6 (human) (UniProt P05231); assay: 20 pM 125I-IL-6 preincubated with 500 pM mAb B-E8 for 20 hours, chase with 20 nM unlabelled IL-6, Protein G-Sepharose precipitation

human IL-6 (human), sequence (P05231 30-212 limits assumed): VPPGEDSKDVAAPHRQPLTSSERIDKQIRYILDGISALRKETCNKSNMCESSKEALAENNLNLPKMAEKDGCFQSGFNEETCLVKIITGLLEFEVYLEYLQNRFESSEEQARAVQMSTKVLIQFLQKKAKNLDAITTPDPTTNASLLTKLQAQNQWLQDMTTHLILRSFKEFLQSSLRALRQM

B1: anti-IL-6 monoclonal neutralizing antibody B-E8 (antibody, from another filing, V domains shown)
VH: QVTLKESGPGILKPSQTLSLTCSFSGFSLSTSGMGVGWIRQPSGKGLEWLAHIWWDDDKYYNPSLKSQLTISKDTSRNQVFLKITSVDTADTATYYCARSYDDYLYYALDYWGQGTSVTVSS
VL: DIVMTQSPATLSVTPGDRVSLSCRASQSISDYLHWYQQKSHESPRLLIKSVSQSISGIPSRFSGSGSGSDFTLSINSVEPEDVGVYYCQNGHSFPLTFGAGTKLELK
For B1, the inhibition of IL-6-dependent proliferation of XG-1 cells (MTT) (fold molar excess over IL-6) (human IL-6 (human) [1]) was 10 and the percent of initial 125I-IL-6 counts still bound after three days (human IL-6 (human) [2]) was under 5%.
